The values that follow come from patent US6521602 (GPC BIOTECH, dated 2003).

This assay deals with CDK4/cyclin D1 complex (UniProt P11802 1-303; P24385 1-295). Nature of the assay: cell-based or functional assay.
Chain of CDK4/cyclin D1 complex (P11802 whole entry, chain 1 of 2): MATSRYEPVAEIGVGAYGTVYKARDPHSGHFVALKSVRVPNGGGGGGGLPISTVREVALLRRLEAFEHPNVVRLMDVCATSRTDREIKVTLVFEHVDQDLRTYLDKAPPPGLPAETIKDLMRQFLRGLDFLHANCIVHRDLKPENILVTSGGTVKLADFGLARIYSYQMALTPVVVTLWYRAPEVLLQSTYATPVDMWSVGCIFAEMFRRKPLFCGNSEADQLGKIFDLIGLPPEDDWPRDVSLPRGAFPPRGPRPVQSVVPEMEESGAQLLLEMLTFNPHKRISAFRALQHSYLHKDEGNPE
Chain of CDK4/cyclin D1 complex (P24385 whole entry, chain 2 of 2): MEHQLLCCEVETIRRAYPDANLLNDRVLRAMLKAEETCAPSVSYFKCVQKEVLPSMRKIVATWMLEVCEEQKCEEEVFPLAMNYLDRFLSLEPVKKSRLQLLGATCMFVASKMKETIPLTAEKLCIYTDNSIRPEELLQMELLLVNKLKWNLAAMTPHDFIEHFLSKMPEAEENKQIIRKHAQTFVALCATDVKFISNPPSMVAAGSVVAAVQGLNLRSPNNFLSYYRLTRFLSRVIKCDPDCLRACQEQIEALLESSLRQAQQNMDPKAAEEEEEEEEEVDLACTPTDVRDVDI

human p27 (from UniProt P46527 1-198): the IC50, in vitro kinase activity was found to be 63 nM.

B1: human p16 (other)
chain: MEPAAGSSMEPSADWLATAAARGRVEEVRALLEAGALPNAPNSYGRRPIQVMMMGSARVAELLLLHGAEPNCADPATLTRPVHDAAREGFLDTLVVLHRAGARLDVRDAWGRLPVDLAEELGHRDVARYLRAAAGGTRGSNHARIDAAEGPSDIPD
Turning to B1, the “IC50, in vitro kinase activity” value turned out to be 250 nM.
